{"source": "the DeepSol protein solubility set", "data": [{"assay": "soluble on expression in E. coli; label from the status in PepcDB or PDB records", "values": [{"sequence": "MSLNVVNSIFSKLSIAPMIDWTNSPFRTLMRLLAPNALLYTEMQTTGAVQNNPDRALYFNSVEHPLAIQLGGADKSALVKCAIIAEQKGFNEINLNLGCPSDKVQAGRFGACLMKEPEHVADCIRAIKQVVGIPVTAKTRIGIDNQDSYEFFRSFSLHLVEAGCDKLIIHARKAWLNGLNPKQNRTIPPVNYDYVYELKKEIPHIFITINGNILTVEEINNHLKHVDGVMLGRLACDNPYQIAEIHQALYPEFIKIKRSQLLMNYLDYWFDQSRANLSLSILVKPLFNLAFGLPGAKHWKKKLMNIIQEKNTSGFSELIQYLLNLEAINQVEEGHHHHHH", "soluble on expression in E. coli": "soluble"}, {"sequence": "EAVIATDEMNVRSGPGLSYGITAEVKKGERYPILKEDGDWVQIQLGSGEKGWVVSWLITKEDQASTSSSGSSDTVTSTDPDLRMRSGPGTSYEVIGKFPQGSQASVIDKDSGWIKISYHSATGWVSSEYVTSGGSSSASDESDQTEDSGASTTGTVGVSSLNVRASASHDAAIITKLDRGTKLTVLNEKNGWAHIEVNGLKGWVASHYLLTSSVPADDSANAGSSSSAKKAYIMYGGTNLRSDASTSASIVERAAKGDSYTITGSKGSWYEIKLDNGQTAYVANWVVQTSKSAEEAGEPPVSDSPSGNGSLNNKTIIVDPGHGGKDSGTIGYSGKFEKNLTIKTAKLLASKLRSAGADVYVTRQDDTFVSLQSRVSTSHYRNADAFISIHYDSYADTSTRGSTAYYYSPAKDQELASDVHSEVVKRSSIPDRGVLFGDYYVLRENRQPAMLYELGYVSHPQEEAIVHSNSYQEKVTDGIESGLEKYF", "soluble on expression in E. coli": "not soluble"}, {"sequence": "MGHHHHHHSHMNNRTRLALIICNTEFDHLPPRNGADFDITGMKELLEGLDYSVDVEENLTARDMESALRAFATRPEHKSSDSTFLVLMSHGILEGICGTVHDEKKPDVLLYDTIFQIFNNRNCLSLKDKPKVIIVQACRGANRGELWVRDSPASLEVASSQSSENLEEDAVYKTHVEKDFIAFCSSTPHNVSWRDSTMGSIFITQLITCFQKYSWCCHLEEVFRKVQQSFETPRAKAQMPTIERLSMTRYFYLFPGN", "soluble on expression in E. coli": "soluble"}, {"sequence": "MGSDKIHHHHHHMAKGNKIPLTFHTYQDAATGTEVVRLTPPDVICHRNYFYQKCFFNDGSKLLFGAAFDGPWNYYLLDLKEQNATQLTEGKGDNTFGGFLSPNDDALYYVKNTRNLMRVDLTTLEEKTIYQVPDDWVGYGTWVANSDCTKMVGIEIKKEDWKPLTDWKKFQEFYFTNPCCRLIRVDLVTGEAETILQENQWLGHPIYRPGDDNTVAFCHEGPHDLVDARMWFINEDGTNMRKVKEHAEGESCTHEFWVPDGSAMIYVSYLKDDTNRYIRSIDPVTLEDRQLRVMPPCSHLMSNYDGTLLVGDGSDAPVDVQDDGGYKIENDPFLYVFNLKTGKEHRIAQHNTSWEVLEGDRQVTHPHPSFTPDNKQVLFTSDVDGKPALYLAKVPDSVWN", "soluble on expression in E. coli": "not soluble"}, {"sequence": "MGSDKIHHHHHHMLSRTASELFWMARYLERAESYARVLDVTWKLSMIPRHSQQSRDLALPLNLSMTHELFQARHARFTMSNLLNFFALDGNNPCSIYSCVEMAWNNAHAVRGSLSAEVWESINATRIELRTLRQQGLGELGSDGFFEWVKERVHLFRGAVIGTLLRNDALSFIGIGTLIERAFATTQLLLIKDQQLTNDPDPVREYYRLDTLLNAVSAREAYNSLYRQPVSRETVMELLILRNDIPRSLRASIADLVGELEKIANDRSYQPLRLAHQLNVDLRFSTRDDLAQADLQTTLNGLLARINALSDSIRQTYLEAL", "soluble on expression in E. coli": "not soluble"}, {"sequence": "MSLYAAYAGNLDARLMTRRAPHSPLRATGWLNGWRLTFGGEHMGWEGALATLVEDPISQVFVSLYDIAPMDEDSLDRWEGVGLDIYRRTRVRIHTLDGEEGAWTYVLNAYEGGLPSARYLGEIADAAESSGAPHDYVMELRKRPCLEHHHHHH", "soluble on expression in E. coli": "not soluble"}, {"sequence": "MASLNCHDKCSTTTQSDINLKDELLSSTSIECRPGNDLLESLHKEQNRWYSETKTFSDSSQHTGRGFEKYWFCYGIKCYYFVMDRKTWSGCKQTCQISSLSLLKIDNEDELKFLKLLVPSDSYWIGLSYDNKKKDWAWINNGPSKLALNTMKYNIRDGGCMLLSKTRLDNDNCDKSFICICGKRLDKFPH", "soluble on expression in E. coli": "soluble"}, {"sequence": "MRVCLLASGSKGNSLFIETGESRILIDAGLSARELVRRLSLIGVDAAQLDALFISHEHTDHVRGAGVLARKYRIPVHVSYPTHREISGQIHGVYVTEFESGYSFTFRDLLVDPFRITHDACDPVGFTVESREGKVGIATDLGTATRLVADKLAGCRALVVESNHDEGMLMDGPYPWHLKQRIKSRHGHLSNNDTAALLAEVINPGLEGLFLAHLSEVNNDPVMARQVTASFLAGQNICSPRLVVGDQYRPSELLNILEHHHHHH", "soluble on expression in E. coli": "not soluble"}, {"sequence": "MILLFGGTTEGRQAAALCDRLGLPFIYSTKTRVEPFATACGEFRHGALDEAALSELVSSSGVRLVIDAAHPFAARLHRSLFEVCQHLAVRLIRFDRPSVDVPDFEGLHSVADFTEALALLDRLNPAKLLALTGVQSIAPLRPWWEQHDMLLRILPTQASMELARREGIPEAQLLPMNPDSSDEALEKLVRKHGVDCLLAKESGESGFFSSKLRVAERCAIPLIVIRRPPAPAYDVVATSVEELEALLPD", "soluble on expression in E. coli": "soluble"}, {"sequence": "MAHHHHHHMAIACDSPVITLYKPRENGMIMPCHPEMSTVENIGQITDAHRLVPTAVRFSEDSQWVISAGEDETLAVSSVRKLKRVFVCTEFITRRHCMAFMNTFTSLCILASPPETSVLIIAACATDGTVVQWVVNPATSRSSYTKKLQLHLGALVAMDIMRDGTGS", "soluble on expression in E. coli": "not soluble"}, {"sequence": "MLLVSTGAAGAEVIYVEPGASIQAAVNNSTTGDFIIVKAGEYEENIVVNVSGVTVSSEPEKSGSVFIRAGDRNSSVFQVKADNVTISGFNITGSGEFFSTHEASSPRDSFPKDPDGQGVSDIPELRKTYSLGSGEVFISRSTEFDCPQAGICLDQVENCTIERNHIFENQYGVYLQGSMNNTLSNNTFFRNGILIDEGCSRNTAENNSIEEGNLIIGAHCWDNIISRNRLSNGGGIGIACCGGGNLVSNNEIINCSTGVDMYDTQARTVLCGNLITDCDYGIYLILVYDSRVYNNTISNSSRGIFLRENSQNNELSGNIINSSNESGIYLLDHCADNRIFNNYFNNTVNVKAENSKGNSWNITKAPGINIAEGPYLGGNFWADLNGTGYSQIAEDSDSDGICDLPYNVNGCDYDYLPLARLPFSPSLSGGNLKLLEHHHHHH", "soluble on expression in E. coli": "not soluble"}, {"sequence": "MSLEENDDDMVGMVDLKIDLERVVRNAVDDAKEVCTQHYGDCPDVKFIISKDANTMRFPHMSSTITYIVVELMKNAFRATVESHMERNSAGMVDCSNMPPVEVLVNIKKNAKHACICVSDEGLGMTRAQCELAMTYAYTTVKRPVIQHGADEDPEEERNGVSPLAGYGFGLPMSRVYAQAFGGDLVMSTMEGYGTRVYYYIKEGHHHHHH", "soluble on expression in E. coli": "soluble"}, {"sequence": "MTEITGGTLVLVGADHPVAHLDVTAFEASVTHDVMAASVAGTGLGVSTATAAGLSHLVVDAGVAQPVQGARSVRIRGERGDLRHADAMTPVQVEALLRDGQALGAEASHDGLVCLGEVGVGNTTIATALACAMTGLGPDEAVGLGAGSDTAMVERKAEIIKAALTRTHTDPNDPERLLAALGGPEFAVLAGVCLGAAEAGSPVVLDGLATSVAALIATKFSPGLHGWLVASQASREQVHHIVLAELGLEALMELRMRAGEGVGACFGAQMILTGLQVRRTAARTCLEHHHHHH", "soluble on expression in E. coli": "not soluble"}, {"sequence": "MAHHHHHHMLPHSVPTSPHQERDRPLEQMTDEELRRELVMLIRTNAILAEESAGLQADISALCEESVRFQQSTEIEEDKVTNQLLRRLQSEEVQKHRFHHQILCEEKARRKIMDQITQVRQQMELEKQLEQEQEVQRMELQRKLIDVVNKKIEVERQLLEERRVQLEALTTKLASIKEGSLAAKSKVDGAVGSRGTQGPSASSQQCQSGTANMTHESPAAAAAAAVAASSQPPPVKTETVPSSVDLPASDVAGDDTHGTIIRLEEQLNRLLEQHAAATQASATNESLCTELGRNLETIQQAASVDRARTLKLKEELQETKRRVAVLEQRAAVGTAYAASDDSSDLPTPSVSSLYDDKRRESLLNCHQRYPSSCVPPSCSASEAGEDTRSV", "soluble on expression in E. coli": "not soluble"}, {"sequence": "MDLLGKLFSRALKLSTLPTKKKRDAFSQQRKVLKKLLKKSANTQFGLRFNFYEILVQFSSGNKKVFYDFYKRRVPVYTYNTLYNEWWYRLKEGEADVTWPGKVQYFALSSGTSDASTKYIPITEQFLKANKKIGIRQLLSLAHYKLPKDLLGKGILMLGGSTHLHKTETYYEGDLSGIQASKIPFWFQYFYKPGSRIARNRDWESKLNDIVESAPDWDIGFIVGVPAWLQILLERIIARYQLKTIHDIWPNLTVFVHGGVAFDPYRKGFEKLLAKPIIYIETYLASEGFIAYQAGPGRKGMKLILDNGIFFEFVPFNEQNINASGDIVVNPKTLMIHEVEEGVDYVLLVSTCAGTWRYMIGDVIRFVDKAQAEIIITGRTKHFISLCGEHLSVDNMNQAIKLVAEELNIIIKEFTVSGIAHDTLFAHQWYIGTDHVIDPVVVSDLLDEKLKLLNDDYRVERTSALKEIFVTILPSQSFYDWMRYRGKEGGQNKFPRVLNKKLHEDWKAFLNQ", "soluble on expression in E. coli": "not soluble"}, {"sequence": "GLVLPHTEFQPAPKQDSSPHLTSQRPVDMVQLLKKYPIVWQGLLALKNDTAAVQLHFVSGNNVLAHRSLPLSEGGPPLRIAQRMRLEATQLEGVARRMTVETDYCLLLALPCGRDQEDVVSQTESLKAAFITYLQAKQAAGIINVPNPGSNQPAYVLQIFPPCEFSESHLSRLAPDLLASISNISPHLMIVIASV", "soluble on expression in E. coli": "soluble"}, {"sequence": "MGSDKIHHHHHHMNRLVSRSTLLNASRCFSRTAEASAKQTCLIETHKKHGGKLVEFAGYDMPTQYADFSIKESTIHTRKHVSLFDVSHMLQTYITGKDRVAFIESLTTADVQGLQENSGTLSVFTNEKGGIKDDLIIMKTDKDFLFLVTNAGCIEKDLPYLQENAAAWRSKGKDVKIETLDNRGLVAVQGPEMAKVLQEGTDIDLSKLTFMKTTVGKVFGIDGCRVTRCGYTGEDGVEISVDPTKAEQLVERLLASQAGSVKLAGLGARDALRLEAGLCLYGSDIEENTTPIEAGLAFVVAKRRRETLDFPGAEHIVKQLKEKSWPKRRVGLLAPAGRCPRSHLPLIDPLDKCSIGFVTSGCPSPTLGKNIAIAYVDKSHSKIGTKFVVDFGAKQAPVEVVKMPFVPTNYFTGK", "soluble on expression in E. coli": "not soluble"}, {"sequence": "MPPSLRKAVAAAIGGGAIAIASVLITGPSGNDGLEGVSYIPYKDIVGVWTVCHGHTGKDIMLGKTYTKAECKALLNKDLATVARQINPYIKVDIPETMRGALYSFVYNVGAGNFRTSTLLRKINQGDIKGACDQLRRWTYAGGKQWKGLMTRREIEREICLWGQQ", "soluble on expression in E. coli": "soluble"}, {"sequence": "MYSIKMRSSNQDVHISGAETICEFDKIEQTVQRFYNKGFFHENGQPDFLNIKIQKIMEPIQQIKALQIIEDDKANLQHLTQECGVTEQALNQGMTYIKNETVYTGAIILSAISGKRLDSFGQRGIRATHFSFEDINNKGDLNERVTDALAIASCINAHPYVKGELCVSDDLTYTTGYFAAAKIGYHRLFDIKPVNTRYGGRIIFVDDCIDLNHYISFLESTPKQVVYETV", "soluble on expression in E. coli": "not soluble"}, {"sequence": "MGSDKIHHHHHHMKQVDYIIVGQGLAGSCLVQSLWHEKQSVVVIASSERKASSTVAAGLYNPITGKKMLLTWNAAVLFPYLDLFYRSAERELDTTILYPKAIVRPFTDIQAQNDFWAKSTPEIAAFAEPEQNIEKYDPYIWFPYGGLITKHSGYVDVQAFLGAIKQKLVEKDQYIEETFDHAALQFSTNSVAYKGIQAKKIIFAEGFHNTRNPIFNWVPVKGMKGDVLTLDIEAYALKEVVNKHFFIIPLPNGKFRMGSSYIREFEDDAPTEGGLKEITEGAHTILKKPFVVIEQKAGIRPVVPDHRPIIGEHPEQPLALIFNGLGTKGVSIAPYASKTLTNFLLLNQEIDQSMSVNRFNYLYFKQKNN", "soluble on expression in E. coli": "not soluble"}]}]}
